Entries after “also recorded” stand apart in the source; their conditions may differ.
B1: M144D (protein, listed as Pasteurella multocida)
chain: MKNRRLNFKLFFLIIFSLFSTLSWSKTITLYLDPASLPALNQLMDFTQNNEDKTHPRIFGLSRFKIPDNIITQYQNIHFVELKDNRPTEALFTILDQYPGNIELNIHLNIAHSVQLIRPILAYRFKHLDRVSIQQLNLYDDGSDEYVDLEKEENKDISAEIKQAEKQLSHYLLTGKIKFDNPTIARYVWQSAFPVKYHFLSTDYFEKAEFLQPLKEYLAENYQKMDWTAYQQLTPEQQAFYLTLVGFNDEVKQSLEVQQAKFIFTGTTTWEGNTDVREYYAQQQLNLLNHFTQAEGDLFIGDHYKIYFKGHPRGGEINDYILNNAKNITNIPANISFEVLMMTGLLPDKVGGVASSLYFSLPKEKISHIIFTSNKQVKSKEDALNNPYVKVMRRLGIIDESQVIFWDSLKQL
modifications: PmST1 wild-type glycosyltransferase family 80 (GT80), GT80 sialyltransferase, Pm0188Ph
B2: M144H (protein)
chain: MKNRRLNFKLFFLIIFSLFSTLSWSKTITLYLDPASLPALNQLMDFTQNNEDKTHPRIFGLSRFKIPDNIITQYQNIHFVELKDNRPTEALFTILDQYPGNIELNIHLNIAHSVQLIRPILAYRFKHLDRVSIQQLNLYDDGSHEYVDLEKEENKDISAEIKQAEKQLSHYLLTGKIKFDNPTIARYVWQSAFPVKYHFLSTDYFEKAEFLQPLKEYLAENYQKMDWTAYQQLTPEQQAFYLTLVGFNDEVKQSLEVQQAKFIFTGTTTWEGNTDVREYYAQQQLNLLNHFTQAEGDLFIGDHYKIYFKGHPRGGEINDYILNNAKNITNIPANISFEVLMMTGLLPDKVGGVASSLYFSLPKEKISHIIFTSNKQVKSKEDALNNPYVKVMRRLGIIDESQVIFWDSLKQL

Assays:
Assay type in all cases: biochemical
[1] = Apparent kinetics of the α2-3-sialyltransferase activity, Le^xβMU acceptor and CMP-Neu5Ac donor (HPLC); details: acceptor Le^xβMU
[2] = α2-3-sialidase activity assay with sialyl Le^x substrate (HPLC); details: for Neu5Ac cleaved from Neu5Acα2-3Le^xβMU: substrate 1 mM, enzyme 4 mg mL^−1, MES pH 5.5, 37° C.
Protocol: The α2-3-sialidase activity assays of PmST1 and mutants. The reactions were carried out in duplicate in a total volume of 10 μL at 37° C. for 20 hr in MES buffer (100 mM, pH 5.5) containing Neu5Acα2-3Le^xβMU (1 mM) and an enzyme (4 mg mL^−1). Aliquots of 1 μL were withdrawn at 1 hr, 6 hr and 20 hr, and analyzed by HPLC as described above for the α2-3-sialyltransferase assays.

[3] = Apparent kinetics of the α2-3-sialyltransferase activity, LacβMU acceptor and CMP-Neu5Ac donor (HPLC); details: acceptor LacβMU
Protocol: To obtain the apparent kinetic parameters of LacβMU as the acceptor for the α2-3-sialyltransferase activity, the kinetic assays were performed in duplicate in reaction mixtures of 10 μL containing Tris-HCl buffer (100 mM, pH 8.5), a fixed concentration of CMP-Neu5Ac (1 mM), different concentrations of LacβMU (0.2, 0.5, 1.0, 2.0, 5.0, and 9.0 mM) and the mutant proteins (2 μg mL^−1 of E271F, 2 μg mL^−1 of R313Y, and 1.6 μg mL^−1 of E271F/R313Y). All reactions were allowed to proceed at 37° C. for 5 min (E271F), 7 min (R313Y), and 10 min (E271F/R313Y). The apparent kinetic parameters were obtained by fitting the experimental data (the average values of duplicate assay results) into the Michaelis-Menten equation using Grafit 5.0.
To obtain the apparent kinetic parameters of CMP-Neu5Ac as the donor for the α2-3-sialyltransferase activity, the kinetic assays were performed in duplicate in reaction mixtures of 10 μL containing Tris-HCl buffer (100 mM, pH 8.5), a fixed concentration of LacβMU (1 mM), different concentrations of CMP-Neu5Ac (0.1, 0.2, 0.5, 1.0, 2.0, 5.0, 10.0 and 20.0 mM) and the mutant proteins (2 μg mL^−1 of E271F, 2 μg mL^−1 of R313Y, and 1.6 μg mL^−1 of E271F/R313Y). All reactions were allowed to proceed at 37° C. for 2 min (E271F), 7 min (R313Y), and 5 min (E271F/R313Y). The apparent kinetic parameters were obtained by fitting the experimental data (the average values of duplicate assay results) into the Michaelis-Menten equation using Grafit 5.0.
All the sialidase and α2-3-sialyltransferase assays were performed in an HPLC system. Reactions were stopped by adding 10 μL of ethanol. After necessary dilutions were performed to adjust the concentrations of the fluorescent-labeled compounds, the samples were then kept on ice until aliquots of 8 μL were injected and analyzed by a Shimadzu LC-6AD system equipped with a membrane on-line degasser, a temperature control unit, and a fluorescence detector (Shimadzu RF-10AXL). A reverse-phase Premier C18 column (250×4.6 mm i.d., 5 μm particle size, Shimadzu) protected with a C18 guard column cartridge was used. The mobile phase was 25% acetonitrile. The fluorescent compounds LacβMU and Neu5Acα2-3LacβMU were detected by excitation at 325 nm and emission at 372 nm.
Kinetics of the α2-3-sialyltransferase activity of PmST1 mutants by HPLC analysis. […] The supernatants were diluted with 25% acetonitrile and kept on ice until aliquots of 8 μL were injected and analyzed by the Shimadzu LC-6AD system equipped with a membrane on-line degasser, a temperature control unit, and a fluorescence detector (Shimadzu RF-10AXL). […] The fluorophore (MU)-labeled compounds were detected by excitation at 325 nm and emission at 372 nm. […]

[4] = Apparent kinetics of the α2-3-sialidase activity (HPLC, fluorescent sialoside substrate); details: substrate Neu5Acα2-3LacβMU
Protocol: All the sialidase and α2-3-sialyltransferase assays were performed in an HPLC system. Reactions were stopped by adding 10 μL of ethanol. […] The mobile phase was 25% acetonitrile.
Kinetics of the α2-3-sialidase activity of PmST1 mutants.

[5] = Kinetics of the donor (CMP-Neu5Ac) hydrolysis activity by capillary electrophoresis
Protocol: The reactions were stopped by adding 10 μL of pre-chilled ethanol. The mixtures were incubated on ice for 30 min and centrifuged at 13,000 rpm for 5 min. The supernatants were diluted with borate buffer (25 mM, pH 9.5) and aliquotes of 5 μL each were injected to a Beckman Coulter P/ACE™ MDQ Capillary Electrophoresis system equipped with a capillary (60 cm×75 μm i.d.) and monitored at 254 nm. The apparent kinetic parameters were obtained by fitting the experimental data (the average values of duplicate assay results) into the Michaelis-Menten equation using Grafit 5.0.

| Molecule | change of efficiency of α2-3-sialyltransferase activity compared to WT (in words) [1] | sialidase activity with Neu5Acα2-3Le^xβMU as substrate (in words) [2] | decrease of kcat value, α2-3-sialyltransferase activity, compared to WT [3] | decrease of α2-3-sialyltransferase activity compared to WT [3] | increase of Km value, α2-3-sialyltransferase activity, compared to WT [3] | decrease of α2-3-sialidase activity (catalytic efficiency kcat/Km) compared to wild-type PmST1 [4] | decrease of efficiency of CMP-Neu5Ac (donor) hydrolysis activity compared to WT [5] | decrease of kcat value, donor hydrolysis, compared to WT [5] | increase of Km value, donor hydrolysis, compared to WT [5] | increase of efficiency of α2-3-sialyltransferase activity compared to WT [1] | Neu5Ac cleaved from Neu5Acα2-3Le^xβMU ([2]; 1 h) | Neu5Ac cleaved from Neu5Acα2-3Le^xβMU ([2]; 6 h) | Neu5Ac cleaved from Neu5Acα2-3Le^xβMU ([2]; 20 h) | increase of kcat value, donor hydrolysis, compared to WT [5] |
| --- | --- | --- | --- | --- | --- | --- | --- | --- | --- | --- | --- | --- | --- | --- |
| B1 | did not change the efficiency of the α2-3-sialyltransferase activity of PmST1 significantly; also recorded: without appreciably changing the efficiency of the α2-3-sialyltransferase activity | no sialidase activity | 2 fold | 18 fold | 9 fold | 5588 fold | 20 fold | 4.2 fold | 4.9 fold | – | – | – | – | – |
| B2 | – | increased sialidase activity compared to the WT PmST1 | – | 1.3 fold | – | 594 fold | 3.3 fold | – | 8.7 fold | 2.6 fold | 10.0% | 24.5% | 34.0% | 2.6 fold |

— patent US9255257B2, “PmST1 mutants for chemoenzymatic synthesis of sialyl lewis X compounds” (THE REGENTS OF THE UNIVERSITY OF CALIFORNIA, priority 2011, dated 2016)
